Measured values published in article PMC10060354, “Discovery of a small molecule ligand of FRS2 that inhibits invasion and tumor growth” (Cellular Oncology, 2022).
Ends that are not written are not given here.

How the values were obtained:
FRS2_PTB = target: T1, FRS2_PTB (Homo sapiens, UniProt Q8WU20); assay: nano differential scanning fluorimetry (nanoDSF); format: binding; conditions: 500 μM ligand
T1 construct: FRS2-PTB 11-140aa; 6xHis; made in house; host or cells: E. coli BL21 (DE3)
T1 sequence (Q8WU20 11-140): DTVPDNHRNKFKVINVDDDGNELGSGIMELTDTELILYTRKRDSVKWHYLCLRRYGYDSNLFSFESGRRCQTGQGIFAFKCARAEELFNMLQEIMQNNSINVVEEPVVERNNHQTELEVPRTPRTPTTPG
Procedure: (§1) Assay establishment and pilot nanoDSF experiments were performed with a Tycho® system. Each experiment was performed by mixing the protein and ligand of interest at a 1:1 ratio and subsequent incubation for 15–30 min at room temperature. Controls of protein alone and ligand alone in identical buffer compositions as for the complex were measured accordingly. The temperature gradient ranged from 35 to 95 °C, and the heating rate was 30 °C/min. Inflection temperatures TI were calculated from the first derivative of the spectra obtained at the ratio of the signals at 350 nm to those at 330 nm. ΔTI of a complex was calculated as following: ΔTI,complex = TI,complex – TI,protein.
The in-built software version 1.1.5.668 (NanoTemper Technologies, Munich, Germany) and Microsoft Office Excel 365 (Microsoft Corp., Seattle, USA) was used for data analysis. Data was plotted with GraphPad Prism vers. 8.3.0 (GraphPad Software, San Diego, USA).
Purified FRS2_PTB or GB1_FRS2_PTB protein tagged with 6 × Histidine residues and the B1 immunoglobulin binding domain of the streptococcal protein G (GB1) were diluted in the protein buffer (100 mM sodium phosphate, 50 mM NaCl, 0.5 mM EDTA, 50 mM arginine, 1 mM TCEP, pH 7.0) to 30 μM, GB-1 to 40 μM. FGFR_PEP, compounds or paracetamol (PARA) as negative control were dissolved at 1 mM in the protein buffer supplemented with 10% DMSO. Compound and protein were mixed at 1:1 volume ratio yielding a final concentration of 15 μM and 20 μM for FRS2_PTB/GB1_FRS2_PTB and GB1, respectively, as well as 500 μM for FGFR_PEP or compounds. The mixture was incubated for 15 min. Each compound was measured in triplicates. Protein controls were measured in six replicates in the beginning. The quality of the screen was assessed by the Z-factor. nanoDSF validation studies were performed on a Prometheus® system in high sensitivity capillaries. Samples were heated with 1 °C/min from 20 to 95 °C. Each compound was measured in triplicates. GB1-FRS2_PTB and GB1 were diluted in the protein buffer (100 mM sodium phosphate, 50 mM NaCl, 0.5 mM EDTA, 50 mM arginine, 1 mM TCEP, pH 7.0) to 30 μM. Compounds 3.3, 3.4, 3.18 as well as the 3.18 analogues were dissolved in 100% DMSO at 50 or 100 mM and further diluted to 1 mM with a final DMSO-concentration of 100%. FGFR_PEP was dissolved at 1 mM in the protein buffer supplemented with 10% DMSO. Compound and protein were mixed at 1:1 volume ratio yielding final concentrations of 15 μM protein and 500 μM for the compounds. FGFR_PEP was measured against both GB1-FRS2_PTB and GB1, all other compounds only against GB1-FRS2_PTB. The mixture was incubated for 15 min before measurement. The data was analyzed for both the ratio of signals at 330 and 350 nm and at 350 nm alone. […]

GB1-FRS2-PTB = target: T2, GB1-FRS2-PTB (Homo sapiens, UniProt Q8WU20); assay: nanoDSF with GB1-fused PTB domain; format: binding
T2 construct: FRS2-PTB 11-140aa; 6xHis (N); made in house; host or cells: E. coli BL21 (DE3)
T2 sequence (Q8WU20 11-140): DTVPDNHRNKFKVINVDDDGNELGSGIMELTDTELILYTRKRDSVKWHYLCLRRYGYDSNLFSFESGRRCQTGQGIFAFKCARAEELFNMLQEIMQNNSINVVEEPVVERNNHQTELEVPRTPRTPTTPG
Procedure: as §1, with “TI,protein. […]” for “TI,protein.”
Purified FRS2_PTB or GB1_FRS2_PTB protein tagged with 6 × Histidine residues and the B1 immunoglobulin binding domain of the streptococcal protein G (GB1) were diluted in the protein buffer (100 mM sodium phosphate, 50 mM NaCl, 0.5 mM EDTA, 50 mM arginine, 1 mM TCEP, pH 7.0) to 30 μM, GB-1 to 40 μM. […] Each compound was measured in triplicates. Protein controls were measured in six replicates in the beginning. The quality of the screen was assessed by the Z-factor. nanoDSF validation studies were performed on a Prometheus® system in high sensitivity capillaries. […] Each compound was measured in triplicates. […] FGFR_PEP was measured against both GB1-FRS2_PTB and GB1, all other compounds only against GB1-FRS2_PTB. […]

GB1-FRS2_PTB [1] = target: T3, GB1-FRS2_PTB (human, UniProt Q8WU20 15-135, 2nd Generation BLUE-NHS dye (in the MST only)); assay: MST; GB1-FRS2_PTB labelled with BLUE-NHS dye at 25 nM; FGFR_PEP in 1:1 serial dilution from 1 mM to 61.04 nM; 25 C; 100 mM sodium phosphate, 50 mM NaCl, 0.5 mM EDTA, 50 mM arginine, 1 mM TCEP, pH 7.0, with and without DMSO; MST trace analysis; conditions: both partners purified
T3 construct: Fibroblast growth factor receptor substrate 2 (FRS2), human, PTB domain, residues 15 to 135; Vector pEM3BT2; also called GB1-fused PTB domain; source: E. coli BL21 (DE3), purified (Ni-NTA); not shown: His6, N-terminal, kept
T3 sequence (looked up): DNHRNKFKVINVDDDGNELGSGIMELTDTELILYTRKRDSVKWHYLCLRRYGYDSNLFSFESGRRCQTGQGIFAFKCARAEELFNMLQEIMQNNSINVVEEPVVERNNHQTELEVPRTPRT

[2] = target: T4, FRS2_PTB (PTB domain of human FRS2) (human, UniProt Q8WU20 15-135); assay: nanoDSF (thermal shift); 15 uM protein mixed with 500 uM FGFR_PEP, incubated 15 min; 100 mM sodium phosphate, 50 mM NaCl, 0.5 mM EDTA, 50 mM arginine, 1 mM TCEP, pH 7.0, with DMSO; shift of the inflection or melting temperature against protein alone; conditions: both partners purified
T4 construct: Fibroblast growth factor receptor substrate 2 (FRS2), human, PTB domain, residues 15 to 135 as the methods state for the PTB domain constructs; The limits 15-135 are stated in the methods sentence that describes the GB1 fusions; also called FRS2-PTB domain; PTB domain of FRS2; source: E. coli BL21 (DE3), purified (Ni-NTA)
T4 sequence (looked up): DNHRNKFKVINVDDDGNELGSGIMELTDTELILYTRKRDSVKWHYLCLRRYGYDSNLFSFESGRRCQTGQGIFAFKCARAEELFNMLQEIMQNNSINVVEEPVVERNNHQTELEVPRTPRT

GB1-FRS2_PTB [3] = target: T3, GB1-FRS2_PTB; assay: as above; conditions: both partners purified

Molecule | nanoDSF shift of the inflection point of the melting curve (ΔTm) (FRS2_PTB) [°C] | nanoDSF shift in the melting temperature (GB1-FRS2-PTB) [°C] | Kd (GB1-FRS2_PTB [1]) [µM] | shift of the inflection point of the melting curve (nanoDSF) [2] [°C] | shift in the melting temperature (nanoDSF) (GB1-FRS2_PTB [3]) [°C]
HSQMAVHKLAKSIPLRRQVTVS [FGFR peptide, reference compound] | 19 ± 0.1 | 10.5 ± 0.1 | – | – | –
HSQMAVHKLAKSIPLRRQVTVS (also called FGFR1 peptide) [FGFR peptide (FGFR_PEP)] | – | – | 1 ± 0.2 | 19 ± 0.1 | 10.5 ± 0.1
